{
  "source": "paper PMC8009872",
  "about": "“Beam image-shift accelerated data acquisition for near-atomic resolution single-particle cryo-electron tomography” (Nature Communications, 2021)",
  "proteins": {"B1": {"name": "protein VC1979 of Vibrio cholerae (dNTPase) (enzyme)", "chain": "QVSLNPEWLARNNDEHKIRRNDHRSPFQRDRARILHSAAFRRLQAKTQVHGTSLNDFHRTRLTHSLEAAQIGTGIVAQIKLKQPEFRELLPSDSLIDSLCLAHDIGHPPYGHGGEIALNYMMRDHGGFEGNAQTFRIVTSLEPYTEHHGMNLSRRTLLGLLKYPALLSATRAAIPPPAVAHQRQLKAKDWSPAKGIYDCDLASLDWVLEPLCESDRELLGQMRAEPSSPKEHRKTRFKSLDCSIMELADDIAYGVHDLEDAIVLGMVTRAQWQEAAAAQLAECGDPWFEEHIAELSEMLFSGKHYVRKDAIGGIVNALLTSISVKPVEAPFHNELLAFNAYIEPHMGNALEVLKHFVSQYVIQIPQVQRFEYKGQQLIMDLFEALSADPERLLPQATGEKWRKAQEQDEGMRVICDYIAAMTDAYAQRLHQQLFSAQSHY"}},
  "molecular_target": "the molecule itself",
  "assay": "cryo-EM structure",
  "data": [
    {"protein": "B1", "values": [
      {"measurement": "stoichiometry N", "result": 6}
    ]}
  ]
}
